Reference: article doi:10.1101/2025.05.26.656162

Biological target: Sam68 N-terminal region (human, UniProt Q07666 1-96)
Experiment: single-molecule nanoaperture optical tweezers

Sam68 N-terminal region, sequence (Q07666 1-96): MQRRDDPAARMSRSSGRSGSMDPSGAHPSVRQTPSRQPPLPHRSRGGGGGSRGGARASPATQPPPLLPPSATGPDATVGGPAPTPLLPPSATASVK

B1: G8.5 RNA (ssRNA)
RNA: GGGUGACACACUAGCUAUAGCAUUAAAAGACCGAGCAAGU
**Q.** B1 was tested. Which Kd did it give?
**A.** ~8 µM
